Measurements from FireProtDB (doi:10.1016/s0022-2836(03)00043-3).

Settings: Homo sapiens; pH 8.5; 20 °C; Urea; CD; Tris 10 mM; reversible: yes; whole UniProt chain shown

B1: Cyclin-dependent kinase inhibitor 2A wild type, P42771 (protein)
chain: MEPAAGSSMEPSADWLATAAARGRVEEVRALLEAGALPNAPNSYGRRPIQVMMMGSARVAELLLLHGAEPNCADPATLTRPVHDAAREGFLDTLVVLHRAGARLDVRDAWGRLPVDLAEELGHRDVARYLRAAAGGTRGSNHARIDAAEGPSDIPD
- denaturant m value: 1.72 kcal/mol/M
- denaturant midpoint (higher = more stable): 2 M
- unfolding free energy: 3.34 kcal/mol
